From PMC6784373, “Development of a Label-Free Electrochemical Aptasensor for the Detection of Tau381 and its Preliminary Application in AD and Non-AD Patients’ Sera”

Molecular target: tau381 (1N3R as printed) (human, UniProt P10636-4 1-381)
Assay: electrochemical aptasensor (DPV, EIS); aptamer immobilized on Au NP/thionin/carboxyl graphene GCE; linear 1.0-100 pM, LOD 0.70 pM (sensor values, not Kd); 0.1 M PBS pH 7.0, 5 uM aptamer for immobilization, 30 min tau381 incubation, DPV -0.6 to 0.2 V; EIS in 10 mM [Fe(CN)6]3-/4-; temperature not stated
Conditions: protein: commercial

Sequence of tau381 (1N3R as printed) (P10636 other isoform, or with tags, fused parts or gaps): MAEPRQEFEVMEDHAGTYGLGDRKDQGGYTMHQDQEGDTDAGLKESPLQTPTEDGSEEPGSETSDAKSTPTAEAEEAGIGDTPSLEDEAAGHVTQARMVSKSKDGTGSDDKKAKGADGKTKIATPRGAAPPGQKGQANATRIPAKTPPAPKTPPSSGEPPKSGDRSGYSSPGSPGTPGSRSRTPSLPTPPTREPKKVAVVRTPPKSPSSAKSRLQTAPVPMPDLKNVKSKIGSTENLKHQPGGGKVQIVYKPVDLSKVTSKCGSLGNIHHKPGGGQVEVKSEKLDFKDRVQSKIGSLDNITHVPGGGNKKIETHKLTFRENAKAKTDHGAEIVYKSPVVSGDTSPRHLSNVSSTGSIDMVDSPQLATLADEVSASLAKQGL

B1: tau381 aptamer (5'-amino) (ssDNA)
DNA: GCGGAGCGTGGCAGG
modifications: 5'-H2N
- binding result: binds
